Strand notation (5' to 3'): a small letter for the sugar, then the base; units joined by * are phosphorothioate-linked, units joined directly phosphodiester-linked; [ ] holds rarer units or linkages, { } end groups; capitals alone tell only the bases. {ppp} = triphosphate; r = 2'-OH (RNA); f = 2'-fluoro
How the values were obtained:
[1] = biological target: T1, human TLR3 (Homo sapiens, UniProt O15455); assay: HEK-hTLR3-NFκB/SEAP reporter assay; format: cell-based; conditions: QUANTI-BLUE
T1 construct: host or cells: HEK293 (HEK-hTLR3-NFκB/SEAP)
T1 sequence (O15455 24-904): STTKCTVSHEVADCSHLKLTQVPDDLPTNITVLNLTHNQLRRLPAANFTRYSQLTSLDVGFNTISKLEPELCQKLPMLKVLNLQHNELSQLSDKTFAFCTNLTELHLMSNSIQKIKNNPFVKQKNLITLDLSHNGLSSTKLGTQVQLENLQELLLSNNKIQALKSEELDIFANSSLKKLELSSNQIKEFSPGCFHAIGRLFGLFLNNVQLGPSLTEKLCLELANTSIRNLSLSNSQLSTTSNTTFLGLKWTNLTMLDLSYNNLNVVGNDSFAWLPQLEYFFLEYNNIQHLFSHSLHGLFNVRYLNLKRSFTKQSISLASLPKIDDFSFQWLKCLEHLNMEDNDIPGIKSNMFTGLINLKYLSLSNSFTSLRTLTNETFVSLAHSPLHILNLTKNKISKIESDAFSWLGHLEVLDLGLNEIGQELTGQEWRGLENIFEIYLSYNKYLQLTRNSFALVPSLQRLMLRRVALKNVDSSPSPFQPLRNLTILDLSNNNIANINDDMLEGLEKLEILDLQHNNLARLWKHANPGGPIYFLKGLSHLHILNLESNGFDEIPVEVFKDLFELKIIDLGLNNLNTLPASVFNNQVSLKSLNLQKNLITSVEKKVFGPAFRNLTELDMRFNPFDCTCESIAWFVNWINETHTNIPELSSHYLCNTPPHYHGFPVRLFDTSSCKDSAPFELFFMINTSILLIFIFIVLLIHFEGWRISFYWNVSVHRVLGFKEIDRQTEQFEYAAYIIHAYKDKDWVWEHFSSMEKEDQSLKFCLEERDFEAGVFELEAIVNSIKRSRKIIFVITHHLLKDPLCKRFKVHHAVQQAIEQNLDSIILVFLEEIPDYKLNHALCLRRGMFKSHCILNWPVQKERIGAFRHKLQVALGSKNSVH
Protocol: The human TLR3 reporter cell, HEK-hTLR3-NFκB/SEAP was purchased from Invivogen. These cells were stably co-transfected with the human TLR3 gene and an inducible SEAP (secreted embryonic alkaline phosphatase) reporter gene into HEK293 cells. The SEAP gene is placed under the control of NF-κB and AP-1. […] SEAP gene expression was measured using the SEAP detection media QUANTI-BLUE (Invivogen), according to the manufacturer's instructions. FIG. 3B is a graph showing that TLR7 is not stimulated by the ssRNAs. Human TLR7-expressing HEK293 cells were kindly provided by Dr. Todd Brennan (Duke University, Durham, N.C.). Treatment with R848 but not with polyI:C, polyI:C-DF and 5′ppp 2′F 10F-DF complexes stimulated HEK-TLR7 cells to produce the inflammatory cytokine IL-8. The data represent the mean of two experiments. Error bars represent the S.D.

[2] = test system: IFNβ; assay: IFNβ ELISA of transfected melanoma cell supernatants; format: cell-based, human
Protocol: For the intracellular delivery of immune stimulatory RNAs, RNAs were transfected with the DharmaFECT® Duo liposomal transfection reagent (Thermo Scientific, Waltham, Mass.) at a transfection reagent (μl):RNA (μg) ratio of 3.75:1, according to the manufacturer's instructions. Unless otherwise stated, for the induction of innate immune responses and apoptosis, immune stimulatory RNAs (500 ng/ml) were transfected into 50 to 70% confluent cells. Cells were incubated with an RNA-transfection agent complex for 5 h, followed by replenishment with fresh culture medium. To electroporate cells, 1×10^5 cells suspended in 200 μl Opti-MEM I (Invitrogen) were mixed with 1 μg of immune stimulatory RNAs or 5 μg of 2'Fluoro pyrimidine ribonucleoside triphosphate in 2-mm cuvettes and were electroporated at 300 V for 500 μs using an Electro Square Porator ECM 830 (BTX, San Diego, Calif.). For the knockdown of RNA-sensing PRRs, cells were transfected with PRR-specific siRNAs (25 nM) twice at 2-day intervals using DharmaFECT®-1 (Thermo Scientific). At 5 h after the second siRNA transfection, cells were harvested, replated into a 96-well plate and incubated overnight. Cells were then treated with immune stimulatory RNA transfections. Staurosporine (2 μM) (Sigma, St Louis, Mo.) and recombinant human IFNβ (20 ng/ml) (PeproTech, Rocky Hill, N.J.) were used as positive controls of anti-melanoma cytotoxicity. […] (100 ng/ml) (eBioscience, San Diego, Calif.) was added directly to the growth media of cells to neutralize IFNβ. Cells were transfected with RNAs as described above. At 24 hours after RNA transfection, culture supernatants were collected and stored at -80° C. for later analyses. The production of human IL-8 was analyzed with a human IL-8 ELISA kit (eBioscience). IFN-β production was determined with a human IFN-β ELISA kit (PBL Biomedical Laboratories, Piscataway, N.J.) by following the manufacturer's instructions.

[3] = test system: WM266.4 cells; assay: Cellular stability of transfected RNA by RT-PCR; format: in vitro ADME, human; conditions: 4, 8, 12 and 24 h after transfection
Protocol: (§1) FIG. 6A-FIG. 6D are a set of graphs showing that 2′F modification increases nuclease resistance, cytotoxicity and inflammatory cytokine induction of immunostimulatory 5′ppp ssRNAs. FIG. 6A is a graph showing ability of various modified ssRNAs to inhibit the growth of cells over concentration ranges. WM266-4 cells were treated with transfection reagent alone (mock) or the complex of transfection reagent and 5′ppp 10F containing 2′F pyrimidine, 2′OMe pyrimidine or unmodified pyrimidine (2′OH) at various concentrations. The viral dsRNA analog PolyI:C was used as an experimental control. Growth inhibition was assessed at 72 h post treatments using the MTT assay. FIG. 6B is a set of graphs showing cytokine induction after treatment with the indicated ssRNAs. WM266-4 cells were either treated with transfection reagent alone (mock) or the complex of transfection reagent and 5′ppp 2′OH 10F, 5′ppp 2′F 10F, 5′ppp 2′OMe 10F or poly I:C (0.5 μg/ml each). The secretion of IFNβ and IL-8 by the melanoma cells was analyzed at 24 h after treatment by ELISA. The data represent the mean of three experiments. Error bars represent the S.D.; *P<0.05 (5′ppp 2′F 10F vs 5′ppp 2′OH 10F); P<0.001 (5′ppp 2′OMe 10F vs 5′ppp 2′OH 10F). […] RNAs were analyzed on 12% polyacrylamide gels. […] At 4 h, 8, 12 and 24 h after transfection, total RNAs were isolated and cellular 10F RNA levels were analyzed by RT-PCR. […]

[4] = Serum stability in 10% fetal bovine serum, polyacrylamide gel; format: in vitro ADME; conditions: 37° C., 0 to 24 h
Protocol: as §1

B1: 10F: 5′ppp 2′F pyrimidine ssRNA aptamer, 71 nt, human melanocytic cell-targeting, SEQ ID NO: 4 (nucleic acid)
chain: {ppp}-rGrGrGrArGrGrAfCrGrAfUrGfCrGrGfUrAfCfCfUrGrAfCrArGfCrAfUfCfUfUrGrAfUrArAfUrGrGfUfCfCfUrAfCrGrGrArGfCfCrGfUfUfCfCrArGrAfCrGrAfCfUfCrGfCfCfCrGrA
[1]
  stimulation of TLR3 reporter cells (SEAP): not
[2]; 0.5 μg/ml, 24 h, ELISA
  IFNβ production, fold compared to unmodified 5′ppp RNAs: over 2 fold
[2]; aptamer treated with bacterial alkaline phosphatase (BAP), 0.125 μg/ml
  IFNβ production after dephosphorylation of the aptamer: partially prevented
[2]; liposomal transfection, ELISA
  IFNβ production / induction, in words: strong induction
[3]
  cellular stability compared to unmodified RNAs: improve cellular stability
[4]
  serum stability: resistant to serum degradation

Reference: patent US10350158B2, “2′ fluoro-modified RNAs as immunostimulators” (DUKE UNIVERSITY, priority 2013, dated 2019)
